Test results published in the supplement of paper PMC10126150.
± gives the standard deviation of the averaged measurements.

test system: ATP; test: switch fluorescence ratio, 500 uM ATP over buffer (Cy3 cluster intensity, sum of 5 cycles each) (fold (ratio)); higher = stronger signal-on switching upon ATP binding; sequences stand for … in TCGTCGGCAGCGTCAGATGTGTATAAGAGACAGTTTTTTTTTTTTTTTTTTTTTTTTT…TC; conditions: aptamer strand: ATP DNA aptamer (quencher-CACCTGGGGGAGTATTGCGGAGGAAGG + anchor), 100 nM annealed; ATP concentration: 500 uM
Method in brief: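 Imaging in selection buffer was followed by imaging after 15 min with 500 uM ATP at 22 °C, for Cy3-labelled switching-strand clusters annealed to 100 nM quencher-labelled ATP aptamer on a modified Illumina MiSeq flow-cell. Five of these buffer/ATP cycles ran, separated by NaOH stripping and re-annealing. The fluorescence ratio per cluster is summed target-cycle over summed buffer-cycle Cy3 intensity, averaged per switch-domain sequence; clusters outside 100-1000 RFU were removed.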
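Note: ATP exposure 15 min at 22 °C before imaging.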

Point of comparison: AACGCCAGGC, switch fluorescence ratio 1.01 ± 0.028. Against it:
- AACCGTTGAC — higher, 1.21 ± 0.02
- AACCTCACTC — higher, 1.49 ± 0.13
- AACCTCTCGG — within error, 1.033 ± 0.0039
- AACCTGCTCG — higher, 1.1 ± 0.02
- AACCTGGGTA — the same, 1.008 ± 0.0035
- AACCTGTAGG — within error, 0.987 ± 0.021
- AACCTTCGTG — higher, 1.62 ± 0.047
- AACGAAACTT — higher, 1.123 ± 0.0042
- AACGAATTCA — within error, 1.05 ± 0.017
- AACGACGATC — higher, 1.11 ± 0.046
- AACGACTGGG — within error, 0.997 ± 0.051
- AACGAGTCGT — within error, 0.989 ± 0.029
- AACGCAGCCT — higher, 1.11 ± 0.0027
- AACGCAGGAG — higher, 1.48 ± 0.025
- AACGCCGCAT — higher, 1.858 ± 0.0036
- AACGCTGGGT — higher, 1.0379 ± 0.00084
- AACGGAGCTT — higher, 1.47 ± 0.25
- AACGGATTCT — within error, 1.04 ± 0.016
- AACGGCGCCA — within error, 0.983 ± 0.025
- AACGGGAGAT — within error, 0.991 ± 0.048
- AACGGGAGGG — within error, 1.04 ± 0.011
- AACGGGCTAG — within error, 0.999 ± 0.014
- AACGGGGAGC — within error, 0.983 ± 0.047
- AACGGGGGCC — within error, 1.03 ± 0.066
- AACGGGGGGA — within error, 0.979 ± 0.033
- AACGGGGTAA — within error, 0.948 ± 0.037
- AACGGGTGCG — within error, 0.995 ± 0.02
- AACGGTACCG — within error, 0.981 ± 0.014
- AACGGTGACG — within error, 1.03 ± 0.072
- AACGGTTTTT — within error, 0.972 ± 0.036
- AACGTAAATT — within error, 1.33 ± 0.31
- AACGTAGTGT — the same, 1.01 ± 0.047
- AACGTGACAG — within error, 1.06 ± 0.046
- AACGTGGGTA — the same, 1.01 ± 0.026
- AACGTGGTTT — the same, 1.01 ± 0.025
- AACGTGTGTG — lower, 0.95018 ± 1.6e-05
- AACGTTAGCG — within error, 1.002 ± 0.0045
- AACGTTGCCC — the same, 1.01 ± 0.025
- AACGTTTTTT — within error, 0.991 ± 0.027
- AACTAGGTGT — within error, 1.15 ± 0.22
- AACTATATCT — within error, 1.05 ± 0.021
- AACTATCTTG — within error, 1 ± 0.0027
- AACTATGGTC — the same, 1.01 ± 0.036
- AACTCAAGGG — the same, 1.0096 ± 0.00058
- AACTCGGTCT — within error, 1.03 ± 0.095
- AACTCGTAGG — within error, 0.995 ± 0.018
- AACTCGTTCT — the same, 1.01 ± 0.011
- AACTCTGAGA — within error, 1.03 ± 0.013
- AACTGAAGTG — within error, 0.984 ± 0.023
- AACTGCGCTG — the same, 1.01 ± 0.035
- AACTGGACTC — higher, 1.14 ± 0.013
- AACTGGAGGG — within error, 0.969 ± 0.042
- AACTGGGACT — within error, 1.02 ± 0.041
- AACTGGGGGC — within error, 1 ± 0.031
- AACTGGGGGT — within error, 1.02 ± 0.017
- AACTGGTCGC — higher, 1.14 ± 0.07
- AACTGTTGGG — within error, 0.9928 ± 0.002
- AACTTAACGA — higher, 1.0744 ± 0.00011
- AACTTATTTG — within error, 1 ± 0.028
- AACTTCTATT — within error, 1.016 ± 0.00089
- AACTTGGTGT — within error, 0.983 ± 0.016
- AACTTGGTTT — within error, 0.961 ± 0.056
- AACTTTAGGT — within error, 0.987 ± 0.023
- AACTTTCCGA — higher, 2.36 ± 0.39
- AACTTTCCTC — higher, 2.49 ± 0.076
- AACTTTGCAG — within error, 1.016 ± 0.0052
- AACTTTTTAC — within error, 1.05 ± 0.028
- AAGAAAACTT — within error, 1.042 ± 0.0089
- AAGAAAGGAA — lower, 0.951 ± 0.029
- AAGAAAGGCA — within error, 0.998 ± 0.033
- AAGAAAGGGA — within error, 1.03 ± 0.038
- AAGAACCCAG — within error, 1.05 ± 0.025
- AAGAACTAAA — within error, 1.05 ± 0.081
- AAGAACTAGG — within error, 1.03 ± 0.041
- AAGAAGCTGA — within error, 0.972 ± 0.019
- AAGAAGGACG — within error, 1 ± 0.033
- AAGAAGGAGC — within error, 0.974 ± 0.039
- AAGAAGTTTG — within error, 0.9879 ± 0.0049
- AAGAATCAGA — within error, 0.98 ± 0.015
- AAGAATCTCT — within error, 0.968 ± 0.045
- AAGACCTTAT — higher, 1.05 ± 0.011
- AAGACGTCAC — higher, 1.91 ± 0.14
- AAGACGTTTT — the same, 1.014 ± 0.0011
- AAGACTCTGG — within error, 0.973 ± 0.044
- AAGAGACGGG — the same, 1.009 ± 0.0018
- AAGAGCTTTG — within error, 0.99 ± 0.013
- AAGAGGATAG — within error, 0.983 ± 0.043
- AAGAGGCTAA — within error, 1 ± 0.036
- AAGAGGGGAC — within error, 0.996 ± 0.056
- AAGAGTCGTA — within error, 0.969 ± 0.027
- AAGAGTGTCG — lower, 0.921 ± 0.056
- AAGAGTTAGG — within error, 0.966 ± 0.031
- AAGATACCTG — within error, 1.08 ± 0.043
- AAGATACGAA — within error, 1.04 ± 0.019
- AAGATAGTAC — within error, 1.04 ± 0.024
- AAGATAGTGT — within error, 0.9936 ± 0.0057
- AAGATATCGA — within error, 1.02 ± 0.014
- AAGATGACGC — within error, 1.12 ± 0.13
- AAGATGTAGC — the same, 1.006 ± 0.0053
- AAGATGTAGG — within error, 1.025 ± 0.0086
- AAGATTATTT — within error, 0.989 ± 0.074
- AAGATTCATT — within error, 0.99763 ± 0.00055
- AAGATTGGGG — within error, 0.977 ± 0.019
- AAGATTTTAC — the same, 1.01 ± 0.019
- AAGATTTTTT — the same, 1.01 ± 0.016
- AAGCAATGGG — higher, 1.45 ± 0.037
- AAGCACCCGT — higher, 1.12 ± 0.058
- AAGCAGGTTA — the same, 1.01 ± 0.0062
- AAGCATAGGA — within error, 1.02 ± 0.02
- AAGCATCATA — within error, 0.988 ± 0.021
- AAGCATGTTG — within error, 0.966 ± 0.021
- AAGCATTAGT — within error, 1.05 ± 0.04
- AAGCATTGTT — within error, 0.999 ± 0.035
- AAGCCAGTGG — the same, 1.014 ± 0.0035
- AAGCCCGGGA — within error, 1.45 ± 0.67
- AAGCCGGGCT — within error, 1.02 ± 0.029
- AAGCCGGGTC — within error, 0.991 ± 0.0014
- AAGCCGTGCG — within error, 1.02 ± 0.014
- AAGCCGTGGC — within error, 0.975 ± 0.11
- AAGCGGTGGG — within error, 1.05 ± 0.032
- AAGCGGTTAA — the same, 1.011 ± 0.0022
- AAGCGTTTTG — within error, 0.988 ± 0.0017
- AAGCTAATTC — higher, 1.186 ± 0.0069
- AAGCTAGTTT — within error, 1 ± 0.013
- AAGCTCAATC — within error, 1.05 ± 0.032
- AAGCTCTGTG — lower, 0.95 ± 0.027
- AAGCTGAGAT — the same, 1.01 ± 0.024
- AAGCTGCATG — the same, 1.01 ± 0.018
- AAGCTGGCTG — lower, 0.945 ± 0.029
- AAGCTGGCTT — within error, 1.024 ± 0.0056
- AAGCTGGTAC — higher, 1.99 ± 0.1
- AAGCTGGTTT — within error, 0.982 ± 0.032
- AAGCTTGTTG — within error, 0.992 ± 0.038
- AAGCTTTTCA — within error, 1.03 ± 0.041
- AAGCTTTTGT — within error, 0.9849 ± 0.0084
- AAGGAAACAC — within error, 1.96 ± 1.3
- AAGGAAAGGG — within error, 1.21 ± 0.25
- AAGGAAGGGT — within error, 1.02 ± 0.041
- AAGGAAGTGC — within error, 1.003 ± 0.0086
- AAGGAGTGAC — within error, 1.05 ± 0.06
- AAGGATAGGA — within error, 1 ± 0.014
- AAGGATGCAT — within error, 1.03 ± 0.038
- AAGGCAATTA — higher, 1.15 ± 0.033
- AAGGCACGCT — within error, 1 ± 0.065
- AAGGCCAATA — within error, 1.05 ± 0.033
- AAGGCCGTGA — within error, 1.03 ± 0.085
- AAGGCGAAAA — within error, 0.976 ± 0.013
- AAGGCGAGAC — within error, 1.06 ± 0.023
- AAGGCGCGGG — within error, 0.9891 ± 0.0081
- AAGGCGCGGT — within error, 1.03 ± 0.011
- AAGGCGGGAG — within error, 0.96 ± 0.032
- AAGGCGGGCT — within error, 0.98942 ± 7e-05
